Experiments:
[1] = target: T1, rPfRH5_(3D7), recombinant receptor binding fragment of P. falciparum reticulocyte binding protein-like … (Plasmodium falciparum, UniProt Q8IFM5 35-222); assay: ITC; BSG injected drop by drop (1 min intervals) into the cell holding PfRH5_(3D7) or PfRH5M; BSG 10 times more concentrated than PfRH5; 25 °C; 0.1 M phosphate buffer, pH 7.0, Dulbecco PBS pH 7.4 in the reference cell (methods); PBS-BSG titration subtracted; fit to one set of binding sites; details: both partners purified
T1 construct: made by site-directed mutagenesis (Y203 to C) of the field-isolate clone rPfRH5M-pET-20b; Cloned BamHI/HindIII into pET-20b(+); also called C203 allele; source: E. coli BL21 (DE3), purified (Ni-NTA)
T1 sequence: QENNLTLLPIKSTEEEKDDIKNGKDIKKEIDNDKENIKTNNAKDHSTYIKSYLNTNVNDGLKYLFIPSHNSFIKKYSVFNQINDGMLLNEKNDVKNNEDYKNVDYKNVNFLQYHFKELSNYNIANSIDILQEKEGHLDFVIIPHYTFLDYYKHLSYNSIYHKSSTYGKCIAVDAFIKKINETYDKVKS

[2] = target: T2, rPfRH5M, recombinant receptor binding fragment of PfRH5 encoded by the most prevalent haplotype rh5h1 (Y203) (Plasmodium falciparum, UniProt Q8IFM5 35-222, C203Y); assay: as above; details: both partners purified
T2 construct: PfRH5, Plasmodium falciparum, field-isolate haplotype rh5h1, which differs from the Pf3D7 allele by C203Y; 188 aa, Glutamine-35 to Serine-222, amplified from DNA of an infected blood sample; Cloned BamHI/HindIII into pET-20b(+); also called PfRH5_(variant); Y203 allele; source: E. coli BL21 (DE3), purified (Ni-NTA)
T2 sequence (looked up): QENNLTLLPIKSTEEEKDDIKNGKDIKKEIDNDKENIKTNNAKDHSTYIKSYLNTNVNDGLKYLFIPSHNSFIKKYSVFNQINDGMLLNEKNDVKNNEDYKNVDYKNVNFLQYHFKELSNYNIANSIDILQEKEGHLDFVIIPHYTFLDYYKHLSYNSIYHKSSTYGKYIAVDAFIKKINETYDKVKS

B1: basigin (BSG) (receptor)
chain: AAGTVFTTVEDLGSKILLTCSLNDSATEVTGHRWLKGGVVLKEDALPGQKTEFKVDSDDQWGEYSCVFLPEPMGTANIQLHGPPRVKAVKSSEHINEGETAMLVCKSESVPPVTDWAWYKITDSEDKALMNGSESRFFVSSSQGRSELHIENLNMEADPGQYRCNGTSSKGSDQAIITLRVRSHLAAL
- Ka [1]: 1.31e+06 M⁻¹
- Ka [2]: 3.63e+06 M⁻¹

Reference: paper PMC7557104, “Population genetic and biophysical evidences reveal that purifying selection shapes the genetic landscape of Plasmodium falciparum RH ligands in Chhattisgarh and West Bengal, India” (Malaria Journal, 2020)
